Laboratory results: US20190085043A1, “FUSION PROTEINS FOR TREATING A METABOLIC SYNDROME” (SANOFI, priority 2012, published 2019)
pEC50: −log10 of the molar value.

Legend:
human GLP-1 receptor = target: T1, human GLP-1 receptor (Homo sapiens, UniProt P43220); test: In vitro cellular assay for human GLP-1 receptor efficacy (cAMP HTRF, HEK-293); format: cell-based; conditions: HEK-293 cells stably expressing human GLP-1 receptor, read-out: hGLP-1R cAMP EC50
T1 construct: expressed in transfected cells
T1 sequence (P43220 24-463): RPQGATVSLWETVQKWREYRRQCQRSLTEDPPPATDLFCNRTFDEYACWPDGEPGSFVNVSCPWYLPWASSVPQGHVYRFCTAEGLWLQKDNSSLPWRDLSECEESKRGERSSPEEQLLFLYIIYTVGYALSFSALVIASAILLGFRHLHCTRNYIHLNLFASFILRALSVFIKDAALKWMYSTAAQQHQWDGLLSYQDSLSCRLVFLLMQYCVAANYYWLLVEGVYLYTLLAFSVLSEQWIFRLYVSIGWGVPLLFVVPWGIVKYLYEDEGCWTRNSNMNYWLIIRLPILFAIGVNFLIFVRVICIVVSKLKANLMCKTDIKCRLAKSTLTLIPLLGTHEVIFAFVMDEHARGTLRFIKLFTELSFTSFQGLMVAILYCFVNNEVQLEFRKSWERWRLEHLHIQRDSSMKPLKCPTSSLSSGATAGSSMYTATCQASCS
Method: The cAMP content of the cells was determined using a kit from Cisbio Corp. (cat. no. 62AM4PEC) based on HTRF (Homogenous Time Resolved Fluorescence).
The cAMP content of cells was determined using a kit from Cisbio Corp. (cat. no. 62AM4PEC) based on HTRF (Homogenous Time Resolved Fluorescence). For preparation, cells were split into T175 culture flasks and grown overnight to near confluence in medium (DMEM/10% FBS). Medium was then removed and cells washed with PBS lacking calcium and magnesium, followed by proteinase treatment with accutase (Sigma-Aldrich cat. no. A6964). Detached cells were washed and resuspended in assay buffer (1×HBSS; 20 mM HEPES, 0.1% BSA, 2 mM IBMX) and cellular density determined. They were then diluted to 4×10^5cells/mL and 25 μL-aliquots dispensed into the wells of 96-well plates. For measurement, 25 μL of test compound in assay buffer was added to the wells, followed by incubation for 30 minutes at room temperature.

human FGFR1c plus KLB = human FGFR1c plus KLB (Homo sapiens, UniProt P11362+Q86Z14); test: FGF-21 receptor autophosphorylation In-Cell Western (pFGFR ICW) in CHO cells; format: cell-based; conditions: CHO cells overexpressing human FGFR1c plus KLB, FGFR autophosphorylation
Chain of human FGFR1c plus KLB (P11362 22-822): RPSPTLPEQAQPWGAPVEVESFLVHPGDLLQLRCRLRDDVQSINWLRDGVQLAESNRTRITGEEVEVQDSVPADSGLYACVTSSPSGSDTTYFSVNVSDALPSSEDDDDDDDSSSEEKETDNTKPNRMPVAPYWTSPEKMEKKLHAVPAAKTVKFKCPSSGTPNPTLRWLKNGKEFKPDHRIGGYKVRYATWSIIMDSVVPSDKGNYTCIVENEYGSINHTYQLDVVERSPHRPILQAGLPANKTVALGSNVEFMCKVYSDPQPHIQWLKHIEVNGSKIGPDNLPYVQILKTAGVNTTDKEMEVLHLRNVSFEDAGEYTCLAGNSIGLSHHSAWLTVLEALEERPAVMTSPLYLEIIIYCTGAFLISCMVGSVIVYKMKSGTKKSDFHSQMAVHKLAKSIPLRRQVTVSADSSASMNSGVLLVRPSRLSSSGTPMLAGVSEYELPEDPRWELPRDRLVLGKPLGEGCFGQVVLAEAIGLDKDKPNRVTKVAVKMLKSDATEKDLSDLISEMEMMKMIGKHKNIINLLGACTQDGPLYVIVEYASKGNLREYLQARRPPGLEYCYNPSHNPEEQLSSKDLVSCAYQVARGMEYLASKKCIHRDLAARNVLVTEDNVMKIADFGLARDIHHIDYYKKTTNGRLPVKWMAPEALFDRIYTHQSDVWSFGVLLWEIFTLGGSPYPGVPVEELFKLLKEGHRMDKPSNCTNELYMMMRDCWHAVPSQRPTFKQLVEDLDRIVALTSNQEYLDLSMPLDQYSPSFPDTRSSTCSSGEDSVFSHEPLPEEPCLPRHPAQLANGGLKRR
Chain of human FGFR1c plus KLB (Q86Z14 whole entry): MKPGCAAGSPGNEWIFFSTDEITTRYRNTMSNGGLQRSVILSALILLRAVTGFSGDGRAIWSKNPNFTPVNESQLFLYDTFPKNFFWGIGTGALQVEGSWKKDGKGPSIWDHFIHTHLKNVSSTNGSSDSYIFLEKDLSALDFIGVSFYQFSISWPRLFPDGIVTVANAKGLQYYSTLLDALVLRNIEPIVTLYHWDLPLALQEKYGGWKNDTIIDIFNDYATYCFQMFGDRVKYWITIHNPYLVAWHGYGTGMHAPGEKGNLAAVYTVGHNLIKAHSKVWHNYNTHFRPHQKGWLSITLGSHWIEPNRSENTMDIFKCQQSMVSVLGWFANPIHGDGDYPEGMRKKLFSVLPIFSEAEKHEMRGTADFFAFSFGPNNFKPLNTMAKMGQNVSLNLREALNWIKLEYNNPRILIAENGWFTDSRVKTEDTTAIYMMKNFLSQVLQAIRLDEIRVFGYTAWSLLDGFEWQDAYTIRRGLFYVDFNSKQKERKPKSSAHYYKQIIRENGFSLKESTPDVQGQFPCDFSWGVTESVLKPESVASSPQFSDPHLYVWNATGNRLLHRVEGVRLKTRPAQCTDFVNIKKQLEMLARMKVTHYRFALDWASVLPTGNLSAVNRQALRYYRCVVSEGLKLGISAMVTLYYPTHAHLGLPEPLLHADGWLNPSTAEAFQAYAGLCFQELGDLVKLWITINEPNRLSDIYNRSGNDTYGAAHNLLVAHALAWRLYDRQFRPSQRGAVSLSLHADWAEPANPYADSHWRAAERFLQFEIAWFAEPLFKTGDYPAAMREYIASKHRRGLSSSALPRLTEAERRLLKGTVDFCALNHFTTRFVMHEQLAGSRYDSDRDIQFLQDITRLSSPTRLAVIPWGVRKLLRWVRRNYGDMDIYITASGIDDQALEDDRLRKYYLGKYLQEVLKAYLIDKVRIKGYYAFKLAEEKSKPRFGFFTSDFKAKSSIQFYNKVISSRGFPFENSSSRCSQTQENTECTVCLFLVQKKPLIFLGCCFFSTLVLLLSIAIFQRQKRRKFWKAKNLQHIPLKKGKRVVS
Method: FIG. 1B-1 to FIG. 1B-4) The FGF induced FGFR autophosphorylation was measured via a specific and highly sensitive In-Cell Western (ICW) in CHO cells stably overexpressing human FGFR1c together with human betaKlotho (KLB). In-Cell Western assay is an immunocytochemical assay usually performed in microplate format. Target-specific primary antibodies and infrared-labelled secondary antibodies are used to detect target proteins in fixed cells, and fluorescent signal from each well is quantified (e.g. the In-Cell Western assay from LI-COR Biosciences, USA).
The cellular efficacy of FGF-21 or FGF-21 fusion proteins was measured using a specific and highly sensitive In-Cell Western (ICW) assay. The ICW assay is an immunocytochemical assay usually performed in microplate format.
(§1) CHO Flp-In cells (Invitrogen, Darmstadt, Germany) stable expressing the human FGFR1c together with human beta-Klotho (KLB) were used for FGF-21 receptor autophosphorylation assay using In-Cell Western. In order to determine the receptor autophosphorylation level, 2×10^4 cells/well were seeded into 96-well plates and grown for 48 h. Cells were serum starved with serum-free medium Ham's F-12 Nutrient Mix with GlutaMAX (Gibco, Darmstadt, Germany) for 3-4 h. The cells were subsequently treated with increasing concentrations of either human FGF-21, the indicated FGF-21 fusion protein, or other peptides for 5 min at 37° C. After incubation the medium was discarded and the cells were fixed in 3.7% freshly prepared para-formaldehyde for 20 min. Cells were permeabilized with 0.1% Triton-X-100 in PBS for 20 min. Blocking was performed with Odyssey blocking buffer (LICOR, Bad Homburg, Germany) for 2 h at room temperature. Anti-pFGFR Tyr653/654 (New England Biolabs, Frankfurt, Germany) was incubated overnight at 4° C. After incubation of the primary antibody, cells were washed with PBS+0.1% Tween20. The secondary anti-Mouse 800CW antibody (LICOR, Bad Homburg, Germany) was incubated for 1 h at room temperature. Subsequently cells were washed again with PBS+0.1% Tween20 and infrared dye signals were quantified with an Odyssey imager (LICOR, Bad Homburg, Germany). Results were normalized by quantification of DNA with TO-PRO3 dye (Invitrogen, Karlsruhe, Germany). FIG. 1B-1 to FIG. 1B-4 show the results from an ICW with CHO cells overexpressing human FGFR1c plus KLB.

MAP kinase ERK1/2 = test: ERK1/2 phosphorylation In-Cell Western (pERK ICW) in CHO cells overexpressing human FGFR1c plus KLB; format: cell-based; conditions: ERK1/2 phosphorylation Thr202/Tyr204
Method: FIG. 1C-1 to FIG. 1C-3) Dose dependent in vitro activation of the downstream effector ERK. Activation of the downstream effector of FGF signaling, the MAP kinase ERK1/2, was determined via In-Cell Western assay in CHO cells stably overexpressing human FGFR1c and KLB using an antibody directed against the ERK1/2 phosphorylated amino acid residues threonine 202 and tyrosine 204.
as §1
To assess the activation of a downstream effector of FGFR signalling by FGF-21-GLP-1RA fusion proteins the phosphorylation of MAP kinases ERK1/2 were analysed. The same ICW protocol as described above was used, simply the primary antibody was replaced by anti-phospho-p44/42 MAPK (Erk1/2) (Thr202/Tyr204) (New England Biolabs, Frankfurt, Germany). FIG. 1C-1 to FIG. 1C-3 show the results from ICW with CHO cells overexpressing human FGFR1c plus KLB and detection of ERK1/2 phosphorylation.

ob/ob mice = test: Treatment of ob/ob mice by chronic infusion (Alzet pumps, 11 days); format: in vivo, mouse; conditions: for Relative body weight change (%): after 11 days of treatment
Method: Female ob/ob mice (B6.V-LEP OB/J, age of 9 weeks) were obtained from Charles Rivers Laboratories (Sulzfeld, Germany). Mice were randomly assigned to treatment or vehicle groups, and the randomization was stratified by body weight and fed blood glucose levels. The animals were housed in groups of 8 at 23° C. and on a 12 h light-dark cycle. All experimental procedures were conducted according to German Animal Protection Law. Mice were fed ad libitum with standard rodent chow during the drug treatment periods. Body weight and food intake was recorded every other day throughout the study.
Ob/ob mice were treated with vehicle (PBS), 0.03, 0.1, 0.3, and 1.0 mg·kg^−1·day^−1 recombinant Exenatide-IEGR-FGF-21 (SEQ ID NO: 15) via chronic infusion by Alzet pumps (type 1004) over 11 days.
At the end of the study liver weight and liver triglycerides were analysed.
Two days before pump implantation and after 11 days of treatment blood glucose was measured by tail tip bleeding under fed conditions. As shown in FIGS. 10 and 11 blood glucose levels of the chronic infused mice were decreased dose-dependently with highest effect at the dosage of 1.0 mg·kg^−1·day^−1 recombinant fusion protein.

[1] = 0.03, 0.1, 0.3 and 1 mg/kg, end of study

Substance | pEC50 (human GLP-1 receptor) | pEC50 (human FGFR1c plus KLB) | pEC50 (MAP kinase ERK1/2) | also measured
Exenatide-APSCPAS-FGF21: fusion protein, linker based on PAS sequence plus Cystein for potential modification | 10.88 | 6.71 | 7.96 | 
Exenatide-APSPAS-FGF21: fusion protein, linker based on PAS sequence | 11.52 | 8.39 | 9.57 | 
Exenatide-FGF21-GG-ABD-GG-FGF21: fusion protein, GG-ABD-GG = linker | 10.67 | 7.43 | 8.36 | 
Exenatide-FGF21-GG-ABD: fusion protein, GG-ABD = linker (albumin binding domain) | 11.10 | 7.10 | 7.05 | 
Exenatide-FGF21: fusion protein of exenatide and human FGF-21 His29-Ser209 without linker | 11.39 | 8.89 | 9.29 | 
Exenatide-GG-ABD-GG-FGF21: fusion protein, GG-ABD-GG = linker | 10.80 |  |  | 
Exenatide-GGGGS-His-GGGGS-ABD-GG-FGF21: fusion protein, GGGGS-His-GGGGS-ABD-GG = linker | 11.60 |  | 8.30 | 
Exenatide-GGGRR-FGF21: fusion protein, GGGRR protease cleavage site linker | 11.11 | 8.13 | 9.01 | 
Exenatide-GSGS-FGF21: fusion protein, GSGS = linker | 11.14 | 7.72 | 9.28 | 
Exenatide-IEGQ-FGF21: fusion protein, IEGQ = linker (mutated/defect Factor Xa cleavage site) | 11.21 | 7.45 | 9.10 | 
Exenatide-IEGR-FGF21: fusion protein exenatide - Factor Xa cleavage site IEGR linker - FGF21 | 11.40 | 8.72 | 9.40 | Relative body weight change (%) (ob/ob mice; 0.03 mg/kg, chronic infusion): +6.6%; Relative body weight change (%) (ob/ob mice; 0.1 mg/kg, chronic infusion): +1.1%; Relative body weight change (%) (ob/ob mice; 0.3 mg/kg, chronic infusion): −2.6%; Relative body weight change (%) (ob/ob mice; 1 mg/kg, chronic infusion): −17.8%; highest reduction of body weight (ob/ob mice; 1 mg/kg, chronic infusion): 17.8%; body weight (ob/ob mice; 0.03, 0.1, 0.3 and 1 mg/kg, chronic infusion): dose dependent decrease; liver triglycerides (ob/ob mice; [1]): dose dependent decrease; total liver weight (ob/ob mice; [1]): dose dependent decrease; blood glucose (ob/ob mice; 0.03, 0.1, 0.3 and 1 mg/kg, fed, after 11 days of chronic infusion): dose dependent decrease
Lixisenatide-FGF21: fusion protein of lixisenatide and FGF21 without linker | 11.43 | 8.43 | 9.62 | 
Lixisenatide-IEGR-FGF21: fusion protein lixisenatide - Factor Xa cleavage site - FGF21 | 11.42 | 8.51 | 9.00 | 
